By Kd is commonly meant the equilibrium constant for the complex coming apart. A high value points to a looser complex.

What all share (experiment): EMSA
(In general: In EMSA bound probe runs differently from free probe, usually more slowly.)

Series [1] has as its target T1, CeMETT10-FLΔL (Caenorhabditis elegans, UniProt Q09357 1-479, del386-430).
T1 sequence: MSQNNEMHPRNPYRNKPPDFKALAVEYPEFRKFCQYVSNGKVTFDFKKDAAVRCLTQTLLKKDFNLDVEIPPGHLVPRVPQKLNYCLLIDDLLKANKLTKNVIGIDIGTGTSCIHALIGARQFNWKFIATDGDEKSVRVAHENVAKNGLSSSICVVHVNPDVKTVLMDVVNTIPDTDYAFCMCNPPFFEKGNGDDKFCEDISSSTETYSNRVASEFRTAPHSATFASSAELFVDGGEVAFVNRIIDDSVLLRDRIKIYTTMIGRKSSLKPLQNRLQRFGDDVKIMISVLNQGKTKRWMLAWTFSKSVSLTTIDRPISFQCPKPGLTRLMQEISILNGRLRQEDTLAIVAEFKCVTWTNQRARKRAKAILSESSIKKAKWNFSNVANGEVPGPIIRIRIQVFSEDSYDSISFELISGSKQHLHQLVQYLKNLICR

In series [2] the target is T2, CeMETT10-FLΔL_RRR/7E (Caenorhabditis elegans, UniProt Q09357 1-479, R360E;A361E;R362E;K363E;R364E;A365E;K366E;del386-430).
T2 sequence: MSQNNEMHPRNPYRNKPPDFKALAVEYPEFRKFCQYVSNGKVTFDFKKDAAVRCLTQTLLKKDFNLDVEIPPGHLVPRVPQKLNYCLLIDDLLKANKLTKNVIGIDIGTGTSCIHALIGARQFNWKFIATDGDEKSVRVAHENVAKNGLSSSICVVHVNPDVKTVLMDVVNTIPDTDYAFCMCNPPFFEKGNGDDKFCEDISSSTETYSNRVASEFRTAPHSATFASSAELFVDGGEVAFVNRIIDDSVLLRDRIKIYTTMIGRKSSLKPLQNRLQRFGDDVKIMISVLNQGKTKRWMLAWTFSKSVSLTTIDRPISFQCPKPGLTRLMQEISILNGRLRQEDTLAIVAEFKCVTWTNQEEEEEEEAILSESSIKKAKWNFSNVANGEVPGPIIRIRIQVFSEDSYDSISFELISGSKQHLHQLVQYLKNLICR

For series [3], the target named is T3, CeMETT10-MTD (Caenorhabditis elegans, UniProt Q09357 1-314).
T3 sequence: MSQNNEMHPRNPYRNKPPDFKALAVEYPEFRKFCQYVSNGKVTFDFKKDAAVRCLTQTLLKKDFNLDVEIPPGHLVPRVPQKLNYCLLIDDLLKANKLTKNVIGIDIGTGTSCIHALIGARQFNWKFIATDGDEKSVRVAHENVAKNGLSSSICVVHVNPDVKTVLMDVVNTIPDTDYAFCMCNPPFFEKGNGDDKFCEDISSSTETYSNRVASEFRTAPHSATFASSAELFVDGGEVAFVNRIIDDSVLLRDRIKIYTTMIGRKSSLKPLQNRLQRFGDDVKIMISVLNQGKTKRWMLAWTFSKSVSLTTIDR

B1: sams-hp-ls (structured_RNA)
RNA: GGCAACAAUAUGUUUCUUUACCUGUUACAACGGUUACUUUGAUUACAGAAACGGUGACUAAAACGGGUAUGAUCAUGUUGUGCCC
Consider B1, for which the Kd in series [1] stood at 0.14 µM; in series [2], 8.3 µM; in series [3], 22.3 µM.

Source of the values: PMC10018337.
